Results from US20230067770A1 (SHANGHAI HENLIUS BIOTECH, published 2023).
Substitutions are numbered along the chain they refer to. Numbers in names are those of the source.

Legend:
[1] = target: T1, CD137 on CD137 stably transfected 293T cells (UniProt Q07011 24-255, limits assumed); assay: flow cytometry, whole cell binding to CD137/NFkB 293T cells, Alexa Fluor 488 anti-human IgG F(ab')2 secondary, median fluorescence intensity
T1 construct: whole, on cells; also called CD137/NF-κB reporter cells
Protocol: (§1) The binding affinity of bispecific antibodies to cell surface receptors was also quantified in whole cell binding assay. […] Afterwards, cells were washed with PBS twice and then incubated with secondary Alexa Fluor® 488 AffiniPure Goat Anti-Human IgG, F(ab′)2 fragment specific antibody (Jackson ImmunoResearch, Code 109-545-006) for 30 min at 4° C. in FACS buffer. The cells were then washed with PBS twice and resuspended in FACS buffer. […] The median fluorescence intensity was fitted using a non-linear model with GraphPad 8.0.
(§2) The anti-CD137×EGFR bispecific antibodies included variants with IgG1 wild type Fc, IgG1 Fc with LALA mutation and different linkers.

[2] = target: T2, EGFR on SK-Hep1 cells (UniProt P00533 25-1210, limits assumed); assay: flow cytometry, whole cell binding to SKHep1 EGFR high cells, Alexa Fluor 488 anti-human IgG F(ab')2 secondary, median fluorescence intensity
T2 construct: whole, on cells; also called EGFR positive SK-Hep1 tumor cells; EGFR high SK-Hep1 cells
Protocol: as §1, §2

[3] = target: T3, human CD137-Fc fusion protein (human, UniProt Q07011 24-186, limits assumed); assay: ELISA, hybridoma supernatant on plates coated with human CD137-Fc fusion protein
T3 construct: also called huCD137
Protocol: Hybridoma screening. Detection of binding to huCD137 by ELISA: To identify hybridomas secreting anti-human CD137 antibodies, ELISA plates (Corning) were coated with human CD137-Fc fusion protein at 1 μg/ml in PBS overnight at 4° C. […] Thirty microliters of supernatants diluted 1:3 in PBS were added to the plates and incubated for 1-2 hour at ambient temperature. Afterwards, the plates were washed as before, and binding of antibodies was detected through Horseradish peroxidase (HRP)-conjugated goat F(ab′)2 anti-human IgG. The plates were developed with TMB and read at 450 nm.

[4] = target: T4, human-CD137 (ELISA antigen of the affinity maturation screen) (human, UniProt Q07011 24-186, limits assumed); assay: ELISA of Fab in supernatants after phage panning
T4 construct: also called human-CD137 ECD

[5] = target: T5, Human CD137-his (human, UniProt Q07011 24-186); assay: BLI (Octet), third comparison, antibody captured on AHC sensor
T5 construct: Bought reagent; also called Human CD137-His (Sino Biological, 10041-H08H)
Protocol: (§3) Biolayer interferometry was used to measure the association and dissociation constants for the binding kinetics of the anti-CD137 antibodies. The binding kinetics was measured on a FortieBio Octet Red 96 at 30° C. and analyzed with the FortieBio Data Analysis 9.0 software. Anti-human-IgG Fc (AHC) sensor was used to capture the anti-CD137 antibodies or control antibodies. A kinetic buffer only well was set as a reference well for subtraction during data processing. Data were fitted with a 1:1 Langmuir model for association and dissociation using Rmax linked global fitting for each antibody-antigen binding. Human CD137-his is a recombinant CD137 antigen with a poly histidine tag fused to C-terminus of human CD137 antigen (Sino Biological, 10041-H08H). Cyno CD137-his is a recombinant CD137 antigen with a poly histidine tag fused to C-terminus of cynomolgus CD137 antigen (Sino Biological, 90847-K02H-100).

[6] = target: T5, Human CD137-his; assay: BLI (Octet), second round, antibody captured on AHC sensor
Protocol: as §3

T1 sequence (Q07011 24-255 limits assumed): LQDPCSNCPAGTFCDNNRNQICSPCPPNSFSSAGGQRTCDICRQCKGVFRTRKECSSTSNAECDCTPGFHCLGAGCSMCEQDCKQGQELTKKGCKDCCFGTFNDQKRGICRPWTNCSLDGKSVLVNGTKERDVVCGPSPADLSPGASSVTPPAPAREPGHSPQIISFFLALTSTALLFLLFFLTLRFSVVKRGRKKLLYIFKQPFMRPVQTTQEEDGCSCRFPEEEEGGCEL

B1: aCD137-scFv-αEGFR-IgG1-Linker7 (bispecific antibody)
heavy: not shown
light: EIVLTQSPATLSLSPGERATLSCRASQSIGTNIHWYQQKPGQAPRLLIKYASESISGIPARFSGSGSGTDFTLTISSLEPEDFAVYYCQQNNNWPTSFGGGTKVEIKRTVAAPSVFIFPPSDEQLKSGTASVVCLLNNFYPREAKVQWKVDNALQSGNSQESVTEQDSKDSTYSLSSTLTLSKADYEKHKVYACEVTHQGLSSPVTKSFNRGEC
notes: also called Anti-EGFR HC-anti-CD137 scFv-IgG1-Linker 7 (HCC)
- EC50 (read off the curve) [1]: ~10 nM
- EC50 (read off the curve) [2]: ~0.3 nM

B2: aCD137scFv-αEGFR-IgG1-LALA (Linker 7) (bispecific antibody)
heavy: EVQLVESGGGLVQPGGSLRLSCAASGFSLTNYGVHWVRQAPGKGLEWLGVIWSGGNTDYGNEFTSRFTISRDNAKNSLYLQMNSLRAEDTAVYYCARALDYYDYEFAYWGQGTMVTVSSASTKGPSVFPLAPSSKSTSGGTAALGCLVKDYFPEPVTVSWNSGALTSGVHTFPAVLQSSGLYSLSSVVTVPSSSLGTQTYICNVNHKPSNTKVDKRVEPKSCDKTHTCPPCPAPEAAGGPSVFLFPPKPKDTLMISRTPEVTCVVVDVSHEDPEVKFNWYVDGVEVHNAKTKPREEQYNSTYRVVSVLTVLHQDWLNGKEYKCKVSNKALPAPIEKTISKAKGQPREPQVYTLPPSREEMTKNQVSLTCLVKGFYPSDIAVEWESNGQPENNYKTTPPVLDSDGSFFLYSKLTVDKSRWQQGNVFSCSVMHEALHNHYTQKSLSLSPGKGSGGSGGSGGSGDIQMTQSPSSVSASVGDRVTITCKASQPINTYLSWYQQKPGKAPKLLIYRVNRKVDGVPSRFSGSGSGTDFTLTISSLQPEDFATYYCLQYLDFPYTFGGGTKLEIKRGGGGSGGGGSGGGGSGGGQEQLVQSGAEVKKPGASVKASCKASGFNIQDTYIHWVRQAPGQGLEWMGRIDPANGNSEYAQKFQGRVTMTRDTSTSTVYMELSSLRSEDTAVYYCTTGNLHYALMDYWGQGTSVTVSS
light: B1 light
notes: The Linker 7 bispecific with the LALA mutation in the IgG1 Fc; also called Anti-EGFR-HC-anti-CD137 scFv-IgG1-LALA-Linker 7 (HCC); αCD137scFv-αEGFR-IgG1 LALA
- EC50 (read off the curve) [1]: ~10 nM
- EC50 (read off the curve) [2]: ~0.2 nM

B3: aCD137-scFv-αEGFR-IgG1-Linker 10 (bispecific antibody)
heavy: not shown
light: B1 light
- EC50 (read off the curve) [1]: ~10 nM
- EC50 (read off the curve) [2]: ~0.3 nM

B4: aCD137-scFv-αEGFR-IgG1-LALA-Linker 10 (bispecific antibody)
heavy: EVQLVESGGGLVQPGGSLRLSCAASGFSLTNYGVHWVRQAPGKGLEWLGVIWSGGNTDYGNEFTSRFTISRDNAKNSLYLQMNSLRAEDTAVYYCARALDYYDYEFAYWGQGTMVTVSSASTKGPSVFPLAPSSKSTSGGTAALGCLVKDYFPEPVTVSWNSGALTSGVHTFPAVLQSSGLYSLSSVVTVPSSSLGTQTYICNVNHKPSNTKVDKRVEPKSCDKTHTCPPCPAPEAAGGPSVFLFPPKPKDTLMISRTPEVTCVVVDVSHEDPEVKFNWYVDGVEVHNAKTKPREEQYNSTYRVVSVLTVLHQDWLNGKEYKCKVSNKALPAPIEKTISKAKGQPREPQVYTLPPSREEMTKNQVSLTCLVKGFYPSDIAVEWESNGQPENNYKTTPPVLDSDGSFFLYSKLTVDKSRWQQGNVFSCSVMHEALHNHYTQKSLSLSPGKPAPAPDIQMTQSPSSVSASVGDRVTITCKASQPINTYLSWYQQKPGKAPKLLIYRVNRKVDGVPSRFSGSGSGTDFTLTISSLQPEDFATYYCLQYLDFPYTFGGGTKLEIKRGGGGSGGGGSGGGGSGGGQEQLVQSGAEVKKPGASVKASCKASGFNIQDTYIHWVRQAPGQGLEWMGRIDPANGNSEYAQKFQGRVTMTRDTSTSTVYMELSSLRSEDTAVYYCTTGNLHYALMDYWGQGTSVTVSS
light: B1 light
notes: The Linker 10 bispecific with the LALA mutation in the IgG1 Fc; also called Anti-EGFR HC-anti-CD137 scFv-IgG1 LALA-Linker 10 (HCC)
- EC50 (read off the curve) [1]: ~10 nM
- EC50 (read off the curve) [2]: ~0.2 nM

B5: hybridoma anti-CD137 antibody clone 29.39 (antibody, V domains shown)
VH: EVKLMESGAELVKPGASVKLSCTASGFNIKDTYIHWVKQRPEQGLEWIGKIDPANGNTEYDLNFQGRATITADTSSNTAYLQLSSLTSEDTAVYYCTTGNLHYYLMDYWGQGTSVTSLE
VL: DIVMTQSPSSMYASLGERVTITCKASQAINTYLSWFQQKPGKSPKTLIYRANRMVDGVPSRFSGSGSGQDYSLTISSLDYEDMGIYYCLQYDDFPYTFGGGTKLEIKR
notes: Tested as hybridoma supernatant
- binding result [3]: binds

B6: Clone 23 (Fab in supernatant) (Fab, V domains shown)
VH: QVQLVQSGAEVKKPGASVKVSCKASGFNIKDTYIHWVRQAPGQGLEWMGKIDPANGQTEYAQKFQGRVTMTRDTSTSTVYMELSSLRSEDTAVYYCTTGNLHYALMDYWGQGTSVTVSS
VL: DIQMTQSPSSVSASVGDRVTITCKASQAINTYLSWYQQKPGKAPKLLIYRANRMVGGVPSRFSGSGSGTDFTLTISSLQPEDFATYYCLQYRDFPYTFGGGTKLEIKR
notes: Screened as Fab in supernatant
- binding result [4]: binds

B7: Clone 2-11 (Fab in supernatant) (Fab, V domains shown)
VH: B6 VH with Q57G
VL: B6 VL with A28P, A51V, M54K, G56D, R92V
notes: as for B6
- binding result [4]: binds

B8: Clone 3 (Fab in supernatant) (Fab, V domains shown)
VH: B6 VH with I29P, K50R, Q57F
VL: B6 VL with G56D, P80H, Y91S, R92D
notes: Screened as Fab in SS320 culture supernatant
- binding result [4]: binds

B9: Clone 5 (Fab in supernatant) (Fab, V domains shown)
VH: B6 VH with K30R, Q57N, A104G
VL: B6 VL with L33H, A51V, G56D, R92L
notes: as for B6
- binding result [4]: binds

B10: Clone 9 (Fab in supernatant) (Fab, V domains shown)
VH: B6 VH with I29L, Q57N
VL: B6 VL with N30A, V55Y, G56D, Y91F, R92D
notes: as for B6
- binding result [4]: binds

B11: Clone 18 (Fab in supernatant) (Fab, V domains shown)
VH: B6 VH with K23Q, E46G, Q57M, M70V
VL: B6 VL with I29P, G56D, R92E
notes: as for B6
- binding result [4]: binds

B12: Clone 19 (Fab in supernatant) (Fab, V domains shown)
VH: B6 VH with I29M, Q57A, A104G
VL: B6 VL with V55G, G56D, Y91S, R92D
notes: as for B6
- binding result [4]: binds

B13: Clone 20 (Fab in supernatant) (Fab, V domains shown)
VH: B6 VH with I29M, Q57D
VL: B6 VL with M54A, G56D, R92L
notes: as for B6
- binding result [4]: binds

B14: Clone 25 (Fab in supernatant) (Fab, V domains shown)
VH: B6 VH with K30Q, K50R, Q57N, T58S, A104G
VL: B6 VL with A51D, M54K, G56D, R92Q, T97K
notes: as for B6
- binding result [4]: binds

B15: Clone 33 (Fab in supernatant) (Fab, V domains shown)
VH: B6 VH with H35Q, Q57N, E59M
VL: B6 VL with A28T, V55P, G56D, R92D
notes: as for B6
- binding result [4]: binds

B16: Clone 35 (Fab in supernatant) (Fab, V domains shown)
VH: B6 VH with K30N, K50R, Q57Y
VL: B6 VL with N30A, G56D, Y91F, R92Q
notes: as for B6
- binding result [4]: binds

B17: hybridoma anti-CD137 antibody clone 44.21 (antibody, V domains shown)
VH: B5 VH
VL: DIVMTQTPLSLPVSLGDHASISCRSSQSLVHSNGNTYLHWFLQKPGQSPKLLIYKVSNRFSGVPDRFSGSGSGTDFTLKISRVEAEDLGVYFCSQNAHVPWTFGGGTKRKSNE
notes: as for B5
- binding result [3]: binds

B18: hybridoma anti-CD137 antibody clone 3.10 (antibody, V domains shown)
VH: EVQLVESGPGLVAPSQSLSITCTVSGFSLTTYDVSWIRQPPGKGLEWLGVIWTGGGTNYNSTFMSRLTISKDNSKNQVFLKMNSLQTDDTATYYCVRVDYWGQGTTLTVSR
VL: B17 VL with I2V, D17G, S32N, R109L, K110E, S111I, N112K, E113R
notes: as for B5
- binding result [3]: binds

B19: hybridoma anti-CD137 antibody clone 30.19 (antibody, V domains shown)
VH: QIQLVQSGPELKKPGETVKISCKASGYSFTDYSIHWVKQAPGKGLKWMGWMNTETGEPAYADDFKGRFAFSLETAASTAYLQINHLRDEDTATYFCTRSSYGYFDYWGQGTTLTVSS
VL: B5 VL
notes: as for B5
- binding result [3]: binds

B20: 2-9-1 IgG1 SELF (antibody)
heavy: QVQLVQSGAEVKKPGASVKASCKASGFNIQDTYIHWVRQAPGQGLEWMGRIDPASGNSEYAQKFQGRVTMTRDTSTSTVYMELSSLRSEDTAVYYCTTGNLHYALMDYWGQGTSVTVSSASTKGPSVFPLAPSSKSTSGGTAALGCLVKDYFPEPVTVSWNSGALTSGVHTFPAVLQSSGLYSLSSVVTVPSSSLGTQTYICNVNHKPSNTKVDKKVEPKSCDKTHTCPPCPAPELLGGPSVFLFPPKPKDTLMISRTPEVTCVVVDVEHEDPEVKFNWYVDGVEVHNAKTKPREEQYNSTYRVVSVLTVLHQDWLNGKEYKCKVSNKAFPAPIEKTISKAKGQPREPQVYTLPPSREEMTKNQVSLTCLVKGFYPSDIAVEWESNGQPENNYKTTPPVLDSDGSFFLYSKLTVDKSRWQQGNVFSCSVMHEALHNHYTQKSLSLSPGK
light: DIQMTQSPSSVSASVGDRVTITCKASQPINTYLSWYQQKPGKAPKLLIYRVNRKVDGVPSRFSGSGSGTDFTLTISSLQPEDFATYYCLQYLDFPYTFGGGTKLEIKRTVAAPSVFIFPPSDEQLKSGTASVVCLLNNFYPREAKVQWKVDNALQSGNSQESVTEQDSKDSTYSLSSTLTLSKADYEKHKVYACEVTHQGLSSPVTKSFNRGEC
notes: Subclone of 2-9 with an IgG1 Fc carrying S267E/L328F; also called clone 2-9-1 IgG1 SELF; Clone 2-9 IgG1 SELF
- Kd [5]: 11.1 nM
- koff [5]: 0.0006 s⁻¹
- kon [5]: 54100 M⁻¹ s⁻¹
- Kd [6]: 6.55 nM
- koff [6]: 0.00034 s⁻¹
- kon [6]: 52000 M⁻¹ s⁻¹

B21: hybridoma anti-CD137 antibody clone 6.62 (antibody, V domains shown)
VH: B19 VH
VL: DVVMTQTPLSLPVSLGDQAAISCRSSQTLEHINGNTYLEWYLQKPGQSPKLLIYKVSDRFSGVPDRFSGSGSGTGFTLKISRVEAEDLGVYYCFQGSHFPLTFGGGTKLELK
notes: as for B5
- binding result [3]: binds

B22: 2-9-2 IgG4 (antibody)
heavy: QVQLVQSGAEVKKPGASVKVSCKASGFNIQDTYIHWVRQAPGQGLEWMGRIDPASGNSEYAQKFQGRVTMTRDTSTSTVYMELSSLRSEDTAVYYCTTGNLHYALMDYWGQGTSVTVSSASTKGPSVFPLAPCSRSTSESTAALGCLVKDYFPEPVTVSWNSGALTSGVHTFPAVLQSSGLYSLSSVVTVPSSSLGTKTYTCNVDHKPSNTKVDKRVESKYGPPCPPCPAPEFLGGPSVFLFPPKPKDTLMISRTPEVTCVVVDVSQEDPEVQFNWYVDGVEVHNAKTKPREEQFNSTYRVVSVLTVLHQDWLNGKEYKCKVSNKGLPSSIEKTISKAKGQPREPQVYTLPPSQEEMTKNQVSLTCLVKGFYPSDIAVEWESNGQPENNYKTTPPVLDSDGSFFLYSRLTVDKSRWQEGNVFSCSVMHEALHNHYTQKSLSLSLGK
light: B20 light
notes: Subclone of 2-9; also called clone 2-9-2 IgG4 wt
- Kd [5]: 12.9 nM
- koff [5]: 0.000801 s⁻¹
- kon [5]: 62200 M⁻¹ s⁻¹
